This assay addresses SH3.1 domain of Nck (NMR work, in preparation) (UniProt P16333 2-61). Description: not stated; affinity told in the discussion without method.

B1: CD3ε polypeptide (NMR work, in preparation) (domain or fragment)
chain: KNRKAKAKPVTRGAGAGGRQRGQNKERPPPVPNPDYEPIRKGQRDLYSGLNQRRI
modifications: The construct is not described (unpublished NMR work, 'in preparation'). The whole cytoplasmic tail, by UniProt topology, is used because it holds the PPS with its upstream and downstream charged …
The term Kd denotes the concentration at which binding is half-saturated. Lower therefore signals higher affinity. The molecule B1 returned a Kd of approximately 100 nM.

The values above are taken from article PMC2254190, “T Cell Receptor Engagement Triggers Its CD3ε and CD3ζ Subunits to Adopt a Compact, Locked Conformation” (PLoS ONE, 2008).
